Data reported in patent publication CN113912710A (SURE BIOTECH HANGZHOU LTD, dated 2022).

Tests used:
[1] = molecular target: T1, SARS-CoV Nucleocapsid Protein(His Tag), 货号40143-V08B (SARS-CoV, UniProt P59595 1-422); assay: ELISA, cross-reaction test
T1 construct: also called SARS病毒的N蛋白; SARS-CoV-NP

[2] = molecular target: T2, MERS-CoV Nucleocapsid Protein(His Tag), 货号40068-V08B (MERS-CoV, UniProt K9N4V7 1-411); assay: ELISA, cross-reaction test
T2 construct: also called MERS病毒的N蛋白; MERS-CoV-NP

B1: 单克隆抗体Mouse anti-SARS-COV-2 Mab4(NP-Ab) (antibody, V domains shown)
VH: VKLQESGPELKKPGETVRISCKASGYTLTDYSIHWVKQAPGKGLKWMGWINTETVEPTYTDDFKGRFAFSLETSASTAYLQINNLKNEDTATYFCASTGTEFDYWGQGTTLTVSS
VL: DVVMTQTPLSLPVSLGDQASISCRSSQSLVHITGNTYLHWYLQKPGQSPKLLIYKVSNRFSGVPDRFSGSGSGTDFTLKISRVEAEDLGVYFCSQSTHVPLTFGAGTKLELK
notes: also called A1-1; A1-1号抗体
binding result [1]: no binding
binding result [2]: no binding
